The values that follow come from publication PMC8052502, “Enzyme kinetic and binding studies identify determinants of specificity for the immunomodulatory enzyme ScpA, a C5a inactivating bacterial protease” (Computational and Structural Biotechnology Journal, 2012).

Test [1] addresses recombinant ScpA, residues 31-1032 (active Streptococcal C5a peptidase) (Streptococcus pyogenes) (UniProt P15926).
The target in test [2] is rhC5a_(core), N-terminal cleavage product (PN) of rhC5a, residues 1-67 (human). Description: SPR; His-tagged C5a peptide immobilised on NTA sensor chip (30-40 RU), ScpA_(S512A) flowed over; 25 °C; 10 mM Hepes-KOH pH 7.5, 150 mM NaCl, 0.005% Tween 20, 50 μM EDTA; 1:1 Langmuir model with drifting baseline.
The target in a further test is rhC5a_(K49A) (human). The description is as above.
For another test, the target named is rhC5a_(R37A) (human). The description is as above.
The next test concerns the target rhC5a_(R46A) (human). Described as above.
The target in test [3] is recombinant human C5a des Arg (rhC5adR), N-ter hexa-histidine tagged (human). The description is as above.
For a further test, the target named is rhC5a_(K4A,K5A) (human). Described as above.
For another test, the target named is rhC5a_(R40A) (human). The description is as above.
The target of test [4] is rhC5a_(K12A,K14A) (human). Described as above.
Test [5] has as its target T1, ScpA_(S512A), active site serine to alanine mutant of recombinant Streptococcal C5a peptidase ScpA, residues … (Streptococcus pyogenes, UniProt P15926 31-1032, S512A).
T1 construct: mimics the form released from the cell surface by SpeB; catalytic residues D130, H193, S512; also called S512A active site mutant of ScpA; source: recombinant, from plasmid pGEX ScpA_((31-1032)) mutated with QuickChange II; purified
T1 sequence: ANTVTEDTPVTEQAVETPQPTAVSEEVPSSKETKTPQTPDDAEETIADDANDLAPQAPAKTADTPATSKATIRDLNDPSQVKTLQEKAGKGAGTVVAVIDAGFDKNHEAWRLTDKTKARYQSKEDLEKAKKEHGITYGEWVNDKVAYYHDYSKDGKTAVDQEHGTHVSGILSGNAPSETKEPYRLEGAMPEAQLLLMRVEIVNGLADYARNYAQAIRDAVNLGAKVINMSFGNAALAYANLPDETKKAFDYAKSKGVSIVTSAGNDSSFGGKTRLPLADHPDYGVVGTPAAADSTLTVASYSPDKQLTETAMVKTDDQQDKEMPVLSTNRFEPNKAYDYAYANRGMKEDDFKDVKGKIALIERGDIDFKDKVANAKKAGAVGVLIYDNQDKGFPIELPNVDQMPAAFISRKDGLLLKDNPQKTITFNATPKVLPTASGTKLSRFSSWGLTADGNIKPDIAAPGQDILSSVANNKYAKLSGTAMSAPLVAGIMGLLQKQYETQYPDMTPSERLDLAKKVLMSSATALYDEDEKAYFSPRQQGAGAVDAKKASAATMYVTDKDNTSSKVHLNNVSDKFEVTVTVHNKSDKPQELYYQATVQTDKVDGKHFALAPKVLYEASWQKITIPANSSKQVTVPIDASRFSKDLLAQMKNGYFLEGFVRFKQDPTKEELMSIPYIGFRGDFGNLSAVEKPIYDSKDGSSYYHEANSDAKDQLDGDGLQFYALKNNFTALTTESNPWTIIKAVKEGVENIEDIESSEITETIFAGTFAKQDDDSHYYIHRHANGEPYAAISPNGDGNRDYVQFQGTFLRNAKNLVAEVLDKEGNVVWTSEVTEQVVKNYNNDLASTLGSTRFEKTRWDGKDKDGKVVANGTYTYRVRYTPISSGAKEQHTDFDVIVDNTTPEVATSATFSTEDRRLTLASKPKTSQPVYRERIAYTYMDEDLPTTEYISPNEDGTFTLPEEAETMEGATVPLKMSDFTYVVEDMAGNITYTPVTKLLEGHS
The test is described as follows: SPR; His-tagged rhC5a immobilised on NTA sensor chip, ScpA_(S512A) flowed over; 25 °C; Hepes buffer with 550 mM NaCl; 1:1 Langmuir model. To be noted: both partners purified. In general terms: SPR reads the build-up and loss of mass on a sensor chip optically.

Test [6] addresses T1, ScpA_(S512A), active site serine to …. The test is described as follows: SPR; His-tagged rhC5a immobilised on NTA sensor chip, ScpA_(S512A) flowed over; 25 °C; Hepes buffer with 750 mM NaCl; 1:1 Langmuir model. To be noted: both partners purified.
Test [7] has the same target. Description: ITC; ScpA_(S512A) (18 μM) in the cell titrated with 170 μM rhC5a; 25 °C; 50 mM Hepes-KOH pH 7.5, 150 mM NaCl; one set of sites model; KD^ITC derived from KA. To be noted: both partners purified. (Isothermal titration calorimetry measures the heat released or taken up as one component is titrated into another.)
The target is the same in test [8]. The test is described as follows: SPR; His-tagged rhC5a immobilised on NTA sensor chip, ScpA_(S512A) flowed over; 25 °C; Hepes buffer with 950 mM NaCl; 1:1 Langmuir model. To be noted: both partners purified.
The target is the same in test [9]. The test is described as follows: SPR; His-tagged C5a peptide immobilised on NTA sensor chip (30-40 RU), ScpA_(S512A) flowed over; 25 °C; 10 mM Hepes-KOH pH 7.5, 150 mM NaCl, 0.005% Tween 20, 50 μM EDTA; 1:1 Langmuir model with drifting baseline. To be noted: both partners purified.
Test [10] shares this target. Description: SPR; His-tagged rhC5a immobilised on NTA sensor chip, ScpA_(S512A) flowed over; 25 °C; Hepes buffer with 350 mM NaCl; 1:1 Langmuir model. The note with it: both partners purified.
The target is the same in test [11]. Description: SPR; competition in solution: 40 RU HT-rhC5a_(core) immobilised on NTA chip; ScpA_(S512A) (700 nM) pre-incubated with rhC5a-HT (0-2000 nM) 1 hr on ice in SPR running buffer, then injected; Req fitted by the method of Morelock et al. to give KD^Sol. The note with it: both partners purified.

In the case of “doubly BODIPY labelled His-tagged rhC5aC75 (rhC5aC75-BODIPY) (natural protein)”, in test [1], the Km of cleavage of rhC5aC75-BODIPY (16-500 nM) by 180 pM ScpA, fluorescence progress curves, 25 °C, PBS with 0.1% Tween 20 turned out to be 185 nM.

B1: ScpA_(S512A), active site serine to alanine mutant of recombinant Streptococcal C5a peptidase ScpA, residues 31-1032 (enzyme)
chain: ANTVTEDTPVTEQAVETPQPTAVSEEVPSSKETKTPQTPDDAEETIADDANDLAPQAPAKTADTPATSKATIRDLNDPSQVKTLQEKAGKGAGTVVAVIDAGFDKNHEAWRLTDKTKARYQSKEDLEKAKKEHGITYGEWVNDKVAYYHDYSKDGKTAVDQEHGTHVSGILSGNAPSETKEPYRLEGAMPEAQLLLMRVEIVNGLADYARNYAQAIRDAVNLGAKVINMSFGNAALAYANLPDETKKAFDYAKSKGVSIVTSAGNDSSFGGKTRLPLADHPDYGVVGTPAAADSTLTVASYSPDKQLTETAMVKTDDQQDKEMPVLSTNRFEPNKAYDYAYANRGMKEDDFKDVKGKIALIERGDIDFKDKVANAKKAGAVGVLIYDNQDKGFPIELPNVDQMPAAFISRKDGLLLKDNPQKTITFNATPKVLPTASGTKLSRFSSWGLTADGNIKPDIAAPGQDILSSVANNKYAKLSGTAMSAPLVAGIMGLLQKQYETQYPDMTPSERLDLAKKVLMSSATALYDEDEKAYFSPRQQGAGAVDAKKASAATMYVTDKDNTSSKVHLNNVSDKFEVTVTVHNKSDKPQELYYQATVQTDKVDGKHFALAPKVLYEASWQKITIPANSSKQVTVPIDASRFSKDLLAQMKNGYFLEGFVRFKQDPTKEELMSIPYIGFRGDFGNLSAVEKPIYDSKDGSSYYHEANSDAKDQLDGDGLQFYALKNNFTALTTESNPWTIIKAVKEGVENIEDIESSEITETIFAGTFAKQDDDSHYYIHRHANGEPYAAISPNGDGNRDYVQFQGTFLRNAKNLVAEVLDKEGNVVWTSEVTEQVVKNYNNDLASTLGSTRFEKTRWDGKDKDGKVVANGTYTYRVRYTPISSGAKEQHTDFDVIVDNTTPEVATSATFSTEDRRLTLASKPKTSQPVYRERIAYTYMDEDLPTTEYISPNEDGTFTLPEEAETMEGATVPLKMSDFTYVVEDMAGNITYTPVTKLLEGHS
A word on the Kd: it is the free concentration of one partner at which half of the binding sites on the other are occupied at equilibrium, for simple one-to-one binding. The term koff denotes a measure of how fast the partners let go of each other. As a reminder, the kon is a measure of how fast the partners come together. As for B1, the dissociation constant (Kd) in test [2] worked out at 240 nM; with rhC5a_(K49A) (human) it was 26 nM; with rhC5a_(R37A) (human), 217 nM; in the test with rhC5a_(R46A) (human), 162 nM; in test [3], 191 nM; with rhC5a_(K4A,K5A) (human) it was 32.5 nM. Besides, the results for the Kd (with rhC5a_(R40A) (human); in test [4]) were 234 nM and 25.6 nM, respectively. For the same molecule, the koff came out at 0.0085 s⁻¹ in [2]; 0.005 s⁻¹ with rhC5a_(K49A) (human); 0.0176 s⁻¹ in the test with rhC5a_(R37A) (human); 0.0178 s⁻¹ in the test with rhC5a_(R46A) (human); 0.0118 s⁻¹ in test [3]; 0.00583 s⁻¹ with rhC5a_(K4A,K5A) (human). Also, the results for the koff (with rhC5a_(R40A) (human); in test [4]) were 0.0205 s⁻¹ and 0.00405 s⁻¹, respectively. Also, the on-rate (kon) amounted to 35200 M⁻¹ s⁻¹ in test [2]; 195000 M⁻¹ s⁻¹ with rhC5a_(K49A) (human); 81200 M⁻¹ s⁻¹ with rhC5a_(R37A) (human); 111000 M⁻¹ s⁻¹ in the test with rhC5a_(R46A) (human); 61700 M⁻¹ s⁻¹ in test [3]; 180000 M⁻¹ s⁻¹ with rhC5a_(K4A,K5A) (human). The kon was found to be 88000 M⁻¹ s⁻¹ with rhC5a_(R40A) (human) and 158000 M⁻¹ s⁻¹ in test [4].

B2: recombinant human C5a, N-ter hexa-histidine tagged (rhC5a) (natural protein, UniProt P01031 678-751, looked up)
chain: TLQKKIEEIAAKYKHSVVKKCCYDGACVNNDETCEQRAARISLGPRCIKAFTECCVVASQLRANISHKDMQLGR
modifications: β-mercaptoethanol added to C27 in the refolding process
notes: numbers count on: the mature C5a (1-74); His-tagged form immobilised on the NTA chip in SPR; also called full length rhC5a; not shown: His6, N-terminal, kept
Regarding B2, the Kd came to 140 nM in test [5]; 256 nM in test [6]; 30.8 nM in test [7]; 466 nM in test [8]; 34 nM in test [9]; 63.5 nM in test [10]. Also, the koff was 0.0054 s⁻¹ in [5]; 0.00651 s⁻¹ in test [6]; 0.0091 s⁻¹ in test [8]; 0.0044 s⁻¹ in [9]; 0.00431 s⁻¹ in [10]. For the same molecule, the kon was determined as 39200 M⁻¹ s⁻¹ in test [5]; 25600 M⁻¹ s⁻¹ in test [6]; 19500 M⁻¹ s⁻¹ in [8]; 131000 M⁻¹ s⁻¹ in test [9]; 68500 M⁻¹ s⁻¹ in test [10]. In addition, the dH in test [7] is -9.4 kcal/mol.

B3: His-tagless form of rhC5a (rhC5a-HT) (natural protein, human, UniProt P01031 678-751, looked up)
chain: TLQKKIEEIAAKYKHSVVKKCCYDGACVNNDETCEQRAARISLGPRCIKAFTECCVVASQLRANISHKDMQLGR
modifications: β-mercaptoethanol added to C27 in the refolding process
notes: numbers count on: the mature C5a (1-74); also called rhC5a-HT(sol); tag-less form rhC5a; source: recombinant rhC5a (pProExHTb) treated with TEV protease (Sigma Merck) to remove the His tag; not shown: His6, N-terminal, cleaved
In the case of B3, in test [11], the Kd stood at 11.1 nM.
